Values of other authors, collected in publication PMC2730980.

Target: Synaptotagmin II (Rattus norvegicus) (UniProt P29101)
UniProt P29101, sequence (P29101 whole entry): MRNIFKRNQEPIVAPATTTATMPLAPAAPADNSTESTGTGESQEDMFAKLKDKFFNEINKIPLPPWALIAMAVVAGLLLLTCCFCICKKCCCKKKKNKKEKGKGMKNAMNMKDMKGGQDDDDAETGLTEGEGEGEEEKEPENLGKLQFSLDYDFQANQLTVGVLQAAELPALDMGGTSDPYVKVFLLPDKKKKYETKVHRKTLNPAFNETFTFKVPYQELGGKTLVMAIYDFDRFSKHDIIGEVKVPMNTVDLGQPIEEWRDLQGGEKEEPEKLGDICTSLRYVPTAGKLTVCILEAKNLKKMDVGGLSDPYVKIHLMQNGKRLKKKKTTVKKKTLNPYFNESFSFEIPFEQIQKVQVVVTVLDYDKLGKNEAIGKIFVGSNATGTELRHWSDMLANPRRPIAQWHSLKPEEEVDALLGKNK

For “Botulinum neurotoxin type B (from UniProt P10844)”, the Kd is listed as 0.4 nM.
